Test results published in the Human Domainome abundance scans (Beltran et al. 2025).

B1: Serine/threonine-protein kinase A-Raf, residues 21 to 89; numbered along this chain, P10398 (parent)
chain: VKVYLPNKQRTVVTVRDGMSVYDSLDKALKVRGLNQDCCVVYRLIKGRKTVTAWDTAIAPLDGEELIVE

Variants of: B1
Test: abundance fitness (aPCA) (normalised: wild type 0, dead -1); higher = more abundant; growth selection in yeast, the domain comes from the species named
Settings: Homo sapiens

Abundance fitness, by site and new letter:
V13: Q -0.468; G -1.06; E -0.857; C -0.206
D17: S -0.04; H -0.279; Q 0; I -0.221; K 0.017; E -0.032; P 0.075; Y -0.319; M -0.144; G -0.096; F -0.114; V -0.186; W -0.304; T -0.178; A 0.039; L -0.319; C -0.418
K8: D -0.133; W -0.355; Q -0.031; H -0.102; C -0.243; T -0.286; R -0.005; E 0; Y -0.231; A -0.042; L -0.363; M -0.107; S -0.111; G 0.16; V -0.723; P -1.02; N 0.132; F -0.363; I -0.683
R10: K -0.002; H 0.041; E 0.118; F 0.147; T 0.111; Y 0.051; C 0.025; Q 0.036; S 0.177; W 0.067; M 0.139; N 0.042; I 0.258; A -0.15; G -0.158; D -0.281; V 0.187; P -0.318; L -0.059
S20: D -0.296; E -0.913; R -0.352; P -0.728; T 0; A -0.808; W -0.847; C -0.31; F -0.844; Q -0.799; L -0.91; V -0.876; N -0.122; G -0.94; Y -0.623; M -0.832
Y4: E -0.133; L 0.068; S -0.022; Q 0.009; G -0.663; A -0.217; D -0.601; M 0.032; C -0.366; T -0.101; W -0.045; V 0.011; F -0.063; I -0.001; P -0.96; H 0.048; K 0.069; R 0
P6: H -0.683; L -0.804; S -0.233; Q -0.363; G -0.463; C -0.55; W -1.01
K2: E -0.379; W -0.314; Q -0.32; V -0.118; N -0.139; R 0.038; A -0.242; T 0.057; L -0.349; F -0.466; G -0.37; Y -0.313; M -0.217; D -0.416; S -0.172; P -0.528
V15: W -0.093; H -0.122; D -0.33; M -0.234; K -0.797; F -0.001; R -0.822; I -0.088; G -0.17; P -0.257; T -0.147; A -0.017; L -0.105; S -0.179; Q -0.686; C 0; N -0.408
T14: K -0.008; W -0.098; N -0.097; A -0.078; C -0.251; D -0.205; P -0.005; L -0.172; F -0.01; Y -0.415; Q 0.034; S -0.156; H -0.213; E -0.138; M -0.113; G -0.295; V -0.126
N7: Q -0.216; D 0.039; G 0.041; M -0.406; A -0.44; L -0.735; H -0.272; V -0.929; E -0.17; P -0.861; Y -0.19; K -0.343; I -0.936; F -0.49; T -0.655; S -0.321; C -0.521
